B1: 19B6 scFv (scFv)
scFv: QVQLQQSGAELVKPGASVKISCKASGYTFTDNYINWVKQRPGQGLEWIGWIHPGSGNAKYNEKFRAKATLTVDTSSNTAYMQLSSLTSEDSAVYFCARVGFRVNFDYWGQGTTLTVSSVDLKSGGSTSGSGKPGSGEGSSGSARQIVLTQSPAIMSASPGEKVTMTCSASSSLSYVHWYQQKPGSSPKPWIYATSNLVSGVPARFSGSRSGTSYSLTISSMEAEDAATYYCQQWSSYPPTFGAGTKLEIK
B2: 19D22 scFv (scFv)
scFv: QIQLLQSGAELVRPGTSVKMSCKAAGYPFTSYWMGWVKQRPGHGLEWIGDIYPGGPYTNYNEKFKGKATLTADTSSSTAYMQFSSLTSEDSAIYYCALYGQVGSYAMDYWGQGTSVTVSSVDLKSGGSTSGSGKPGSGEGSSGSARQIVLTQSPAIMSASPGEKVTMTCSASSSVSYMYWYQQKPGSSPRLLIYDTSNLASGVPVRFSGSGSGTSYSLTISRMEAEDAATYYCQQWSSYPPITFGAGTKLEIK
B3: 19A9 scFv (scFv)
scFv: EVQLQQPGSELARPGASVKLSCKASGYTFTSYPITWVKQTTGQGLEWIGEIYPRSGNTYYNEKFKGKATLTADKSSSTAYMELRSLTSEDSAVYFCARDYYDYAGGGRGYWGQGTTLTVSSVDLKSGGSTSGSGKPGSGEGSSGSARDIVLTQSPAIMSASPGGKITITCSASSSVSYMHWFQQKPGTSPKLWIYSTSNLASGVPARFSGSGSGTSYSLTISRMEAEDAATYYCQQRSSYPYTFGGGTKLEIK
B4: 18E5 scFv (scFv)
scFv: EVQLQESGPELVKPGASVKISCKASGYTFTDHNMDWVKQSLGKSLEWIGDINPNNGGAVYNQNFKGKATLTVDKSSSTAYMELRSLTSEDTAVYYCARYGYYGYFDYWGQGTTLTVSSVDLKSGGSTSGSGKPGSGEGSSGSARQIVLTQSPAIMSASPGEKVTMTCRASSSVSSSYLHWYQQKPGSSPKLWIYSTSNLASGVPARFSGSGSGTSYSLTISSVEAEDAATYYCQQYDSSPSTFGAGTKLEIK
B5: 18D10 scFv (scFv)
scFv: QVQLKQSGIEVMKPGASVKLSCKASGYPFTAYWIEWVKQRPGHGLEWIGEFLPGGISTNFNEKFKGKATFSADTSSNSAYIQLNSLTTEDSAIYYCVLTGTGFDYWGQGTSVTVSSVDLKSGGSTSGSGKPGSGEGSSGSARENVLTQSPAIMSASPGEKVTMTCSASSSVSYMHWYQQKSGTSPKRWIYDTSKLASGVPARFSGSGSGTSYSLTISSMEAEDAATYYCQQWSSNPLTFGAGTKLELK
B6: 19D2 scFv (scFv)
scFv: EVQLQQSGGELARPGSSVKLSCKASGYSFTGYSLTWVKQTPGQGLEWIGEIYPRSGNTYYNENFQGKATLTADESSSTAYMELRSLTSEDSAVYFCARDFYDYDGGGRGYWGQGTTLTVSSVDLKSGGSTSGSGKPGSGEGSSGSARDIVMTQTPAIMSASPGEKVTITCSASSSVSYMHWYQQKPGTSPKLWIYSTSNLASGVPARFSGSGSGTSYSLTISRMEAEDAATYYCQQRSSYPYTFGGGTKLEIK
B7: 16B3 scFv (scFv)
scFv: EVQLQQSGPELVKPGASVKITCKASGYTFTDNNMDWVKQSHGKSLEWIGDINPNNGGSIYNQKFKGKASLTLDKSSSTAYMELRSLTSEDTAVYYCARWGYYGSLAYWGQGTLVTVSSVDLKSGGSTSGSGKPGSGEGSSGSARQNVLTQSPAIMSASPGEKVTMTCSASSSVSSRYLHWYQQKSGASPKLWIYGTSNLASGVPARFSGSGSGTSYSLTISSVEAEDAATYYCQQYHSDPLTFGGGTKLEIK
B8: 18A6 scFv (scFv)
scFv: EVQLQQSGPELVKPGASVKISCKASGYTFTDNYINWVKQRPGQGLEWIGWIYPGSGNTKYNEKFKGKATLTVDTSSNTAYMQLTGLASDDSAVYFCARVNFYVSWDYWGQGTSVTVSSVDLKSGGSTSGSGKPGSGEGSSGSAREIVLTQSPAIMSASPGEKVTMTCSASSSISYMHWFQQKPGMSPKRRIFDTSKLASGVPARFSGSGSGTSYSLTISSMEAEDAGTYYCHQRSSYPFTFGGGTKLELK
B9: 26G5 scFv (scFv)
scFv: EVQLQESGPGLAKPSQTLSLTCSVTGYSITSDYWNWIRKFPGNKLEYMGYISYSGSTYYNPSLKSRISITRDTSKNQYYLQLNSVTTEDTATYYCARSFYDGYLYFDYWGQGTTVTVSSVDLKSGGSTSGSGKPGSGEGSSGSAREIVLTQSPAILSASPGEKVTMTCSASSSVSYMYWYQQKPGSSPRLLIYDTSNLASGVPARFSGSGSGTSYSLTISRVEAEDAATYYCQQWSSYPPTFGDGTRLEIK
B10: 18F2 scFv (scFv)
scFv: EVQLQQSGPELMKPGASVKISCKASGYAFSRSWMNWVKQRPGKGLEWIGRIYPGDGDTNYNGKFKDKASLTADTSSSTAYMQLSSLTSEDSAVYFCTKSEGYYHNLGAYWGQGTTVTVSSVDLKSGGSTSGSGKPGSGEGSSGSAREIVLTQSPAIMSASPGQKVTITCSASSSVSYMHWYQQKSGTSPKRWIYDTSKLASGVPARFSGSGSGTSYSLIISSMEAEDAATYYCQQWRSNPPTFGGGTRLEIK
B11: 26E6 scFv (scFv)
scFv: EVQLQQSGPELVKPGASVKISCKASGYTFADYYINWVKQSHGKSLEWIGDFNPNNGDHSYNQKFKDKATLTVDESSNTAYMELRSLTSEDSAVYYCTREFYYYFDVWGTGTTVTVSSVDLKSGGSTSGSGKPGSGEGSSGSARDIVMSQSPLSLPVSLGDQAFISCRFSQSIVHSNGNTYLEWYLQKPGQSPKLLIYKVSNRFSGVPDRFSGSGSGTDFTLKISRVEAEDLGVYYCFQGSHVPYTFGGGTKLEIK
B12: 26B2 scFv (scFv)
scFv: DVQLQESGPELVKPGASVKISCKASGYTFADYYINWVKQSHGKSLEWIGDFNPNNGDHSYNQKFKDKATLTVDESSNTAYMELRSLTSEDSAVYYCTREFYYYFDVWGTGTSVTVSSVDLKSGGSTSGSGKPGSGEGSSGSARDIEMTQTPAIMSASPGEKVTMTCSASSSVSSRYLHWYQQKSGASPKLWIYGTSNLASGVPARFSGSGSGTSYSLTISNVEAEDAATYYCQQYHSDPLTFGAGTKLEIK
B13: 26D9 scFv (scFv)
scFv: DVQLQESGAELVKPGASVKLSCKASGFTFTDYWMHWVKQRPGQGLEWIGMIHPYNGDNNYHEKFKSKATLTVDKSSSTAYMQLSSLTTEDSAVYYCVRNDYDPYYYALDYWGQGTSLTVSAVDLKSGGSTSGSGKPGSGEGSSGSARQIVLTQSPAIMSASPGEKVTMSCRASSSVSYVYWYQQKPGSSPKPWIYRTSNLASGVPVRFSGSGSGTSYSLTISRVEAEDAATYYCQQWSSYPPTFGGGTKLEIK
B14: 8DC3 scFv (scFv, V domains shown)
VH: QVQLVQSGGGLVKPGGSLRLSCAASGFTFSSHSMNWVRQAPGKGLEWVSSISSSSSYIYYADSVKGRFTISRDNSKNSLYLQLNSLRAEDTAVYYCARGDHDFRSGYYGMDVWGQGTMVTVSS
VL: AELTQDPAVSVALGQTVRITCQGDSLRNYYASWYQQKPGQAPVLVIYGKNIRPSGIPDRFSGSSSGNTASLTITGAQAEDEADYYCNSRDSNGNHYVFGTGTKVTVL

Broadly, the Kd is the constant that tells how readily two partners part at equilibrium. The low end stands for a tighter complex, the high end for a looser complex.

In the first assay the target is BoNT/B4 (Clostridium botulinum). Briefly: yeast scFv FACS.
Molecule B1 displayed a Kd of 43.5 nM.
Still for that read-out and setting: then B2, with 5.24 nM; and B3, with 1.04 nM.
On to B4, for which the Kd came out at 1.36 nM.
Still for that read-out and setting: then B5, with 4.2 nM.
For the molecule B6, the Kd was found to be 1.84 nM.
The same measure, in the same setting: the same measure for B7: 0.71 nM; for B8: 30.6 nM.

The target in a further assay is BoNT/B2 (Clostridium botulinum). The assay is described as follows: yeast scFv FACS.
Consider B9, for which the Kd turned out to be 30.5 nM.
The same measure, in the same setting: then B1, with 35.6 nM.
Consider B2, for which the Kd stood at 5 nM.
On to B10, for which the Kd was found to be 8.75 nM.
Take B3: the Kd was 0.88 nM. Against the preceding molecule, the Kd is about 9.9-fold lower.
Still for that read-out and setting: the same measure for B4: 2.66 nM; for B5: 5.57 nM; for B11: 17.6 nM.
The same measure, in the same setting: the same measure for B6: 1.85 nM; for B12: 5.43 nM.
With B7, the Kd worked out at 0.75 nM.
B13: the Kd is 0.467 nM.
For B8, the Kd came out at 32.4 nM.

Another assay addresses BoNT/C1 or other subtypes. Briefly: yeast scFv FACS.
Take B14: the Kd is above 20 nM.

In the next assay the target is BoNT/B3 (Clostridium botulinum). The assay is described as follows: yeast scFv FACS.
B1: the Kd came out at 866 nM.
The same measure, in the same setting: the same measure for B2: 3.77 nM; for B3: 1.18 nM.
The same measure, in the same setting: then B4, with 2.56 nM; and B5, with 3.35 nM; and B6, with 1.47 nM.
As for B7, the Kd was 0.49 nM.
On the same count and under the same terms, then B8, with 27.9 nM.

The values above are taken from patent US20220089784A1.
